Laboratory results from IntAct's records for PubMed 20947020.

B1: AP-2 complex subunit mu (Rattus norvegicus (Rat)), P84092 (parent)
chain: MIGGLFIYNHKGEVLISRVYRDDIGRNAVDAFRVNVIHARQQVRSPVTNIARTSFFHVKRSNIWLAAVTKQNVNAAMVFEFLYKMCDVMAAYFGKISEENIKNNFVLIYELLDEILDFGYPQNSETGALKTFITQQGIKSQHQTKEEQSQITSQVTGQIGWRREGIKYRRNELFLDVLESVNLLMSPQGQVLSAHVSGRVVMKSYLSGMPECKFGMNDKIVIEKQGKGTADETSKSGKQSIAIDDCTFHQCVRLSKFDSERSISFIPPDGEFELMRYRTTKDIILPFRVIPLVREVGRTKLEVKVVIKSNFKPSLLAQKIEVRIPTPLNTSGVQVICMKGKAKYKASENAIVWKIKRMAGMKESQISAEIELLPTNDKKKWARPPISMNFEVPFAPSGLKVRYLKVFEPKLNYSDHDVIKWVRYIGRSGIYETRC
partner: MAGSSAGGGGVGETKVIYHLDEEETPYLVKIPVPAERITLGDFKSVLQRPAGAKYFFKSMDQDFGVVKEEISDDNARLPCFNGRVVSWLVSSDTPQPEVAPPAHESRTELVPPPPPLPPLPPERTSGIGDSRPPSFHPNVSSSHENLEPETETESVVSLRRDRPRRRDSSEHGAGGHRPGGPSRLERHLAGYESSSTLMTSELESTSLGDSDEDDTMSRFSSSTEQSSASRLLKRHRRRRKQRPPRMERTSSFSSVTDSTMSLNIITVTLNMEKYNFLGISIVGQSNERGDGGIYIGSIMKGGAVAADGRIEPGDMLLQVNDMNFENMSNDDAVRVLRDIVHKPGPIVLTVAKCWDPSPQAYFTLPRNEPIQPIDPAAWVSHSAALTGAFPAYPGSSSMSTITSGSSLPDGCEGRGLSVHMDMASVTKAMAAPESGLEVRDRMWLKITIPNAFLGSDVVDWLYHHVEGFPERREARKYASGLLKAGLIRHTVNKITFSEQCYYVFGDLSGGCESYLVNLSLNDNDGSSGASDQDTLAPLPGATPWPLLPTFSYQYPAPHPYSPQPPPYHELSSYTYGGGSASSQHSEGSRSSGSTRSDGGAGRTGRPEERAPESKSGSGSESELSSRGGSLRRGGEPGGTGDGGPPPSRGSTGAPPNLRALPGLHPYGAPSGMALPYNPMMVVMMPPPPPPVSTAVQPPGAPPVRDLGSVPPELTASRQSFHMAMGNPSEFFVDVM
B2: Segment polarity protein dishevelled homolog DVL-2 (Mus musculus), Q60838 (parent)
chain: B1 partner

Variants of: B1
Conditions: with dvl2_mouse Dvl2, Q60838

Row | Variant | effect of a mutation on the interaction
1 | MIGGLFIYNHKGEVLISRVYRDDIGRNAVDAFRVNVIHARQQVRSPVTNIARTSFFHVKRSNIWLAAVTKQNVNAAMVFEFLYKMCDVMAAYFGKISEENIKNNFVLIYELLDEILDFGYPQNSETGALKTFITQQGIKSQHQTKEEQSQITSQVTGQIGWRREGIKYRRNELFLDVLESVNLLMSPQGQVLSAHVSGRVVMKSYLSGMPECDFGMNDKIVIEKQGKGTADETSKSGKQSIAIDDCTFHQCVRLSKFDSERSISFIPPDGEFELMRYRTTKDIILPFRVIPLVREVGRTKLEVKVVIKSNFKPSLLAQKIEVRIPTPLNTSGVQVICMKGKAKYKASENAIVWKIKRMAGMKESQISAEIELLPTNDKKKWARPPISMNFEVPFAPSGLKVRYLDVFEPKLNYSDHDVIKWVRYIGRSGIYETRC [K213D;K405D] | decreasing interaction
2 | MIGGLFIYNHKGEVLISRVYRDDIGRNAVDAFRVNVIHARQQVRSPVTNIARTSFFHVKRSNIWLAAVTKQNVNAAMVFEFLYKMCDVMAAYFGKISEENIKNNFVLIYELLDEILDFGYPQNSETGALKTFITQQGIKSQHQTKEEQSQITSQVTGQIGWRREGIKYRRNELFLDVLESVNLLMSPQGQVLSAHVSGRVVMKSYLSGMPECKFGMNDKIVIEKQGKGTADETSKSGKQSIAIDDCTFHQCVRLSKFDSERSISFIPPDGEFELMRYRTTKDIILPFRVIPLVREVGRTKLEVKVVIKSNFKPSLLAQKIEVRIPTPLNTSGVQVICMKGKAKYKASENAIVWKIKRMAGMKESQISAEIELLPTNDKKKWARPPISMNFEVPFAPSGLKVRYLKVFEPKLNYSDHDVIKAVRYIGRSGIYETRC [W421A] | disrupting interaction
3 | MIGGLFIYNHKGEVLISRVYRDDIGRNAVDAFRVNVIHARQQVRSPVTNIARTSFFHVKRSNIWLAAVTKQNVNAAMVFEFLYKMCDVMAAYFGKISEENIKNNFVLIYELLDEILDFGYPQNSETGALKTFITQQGIKSQHQTKEEQSQITSQVTGQIGWRREGIKYRRNELFLDVLESVNLLMSPQGQVLSAHVSGRVVMKSYLSGMPACDFGMNDKIVIEKQGKGTADETSKSGKQSIAIDDCTFHQCVRLSKFDSERSISFIPPDGEFELMRYRTTKDIILPFRVIPLVREVGRTKLEVKVVIKSNFKPSLLAQKIEVRIPTPLNTSGVQVICMKGKAKYKASENAIVWKIKRMAGMKESQISAEIELLPTNDKKKWARPPISMNFEVPFAPSGLKVRYLDVFEPKLNYSDHDVIKWVRYIGRSGIYETRC [E211A;K213D;K405D] | decreasing interaction
4 | MIGGLFIYNHKGEVLISRVYRDDIGRNAVDAFRVNVIHARQQVRSPVTNIARTSFFHVKRSNIWLAAVTKQNVNAAMVFEFLYKMCDVMAAYFGKISEENIKNNFVLIYELLDEILDFGYPQNSETGALKTFITQQGIKSQHQTKEEQSQITSQVTGQIGWRREGIKYRRNELFLDVLESVNLLMSPQGQVLSAHVSGRVVMKSYLSGMPACDFGMNDKIVIEKQGKGTADETSKSGKQSIAIDDCTFHQCVRLSKFDSERSISFIPPDGEFELMRYRTTKDIILPFRVIPLVREVGRTKLEVKVVIKSNFKPSLLAQKIEVRIPTPLNTSGVQVICMKGKAKYKASENAIVWKIKRMAGMKESQISAEIELLPTNDKKKWARPPISMNFEVPFAPSGLKVRYLDVAEPKLNYSDHDVIKWVRYIGRSGIYETRC [E211A;K213D;K405D;F407A] | decreasing interaction

Variants of: B2
Conditions: with ap2b1_bovin AP2B1, P63009
Chain of ap2b1_bovin AP2B1, P63009 (P63009 whole entry): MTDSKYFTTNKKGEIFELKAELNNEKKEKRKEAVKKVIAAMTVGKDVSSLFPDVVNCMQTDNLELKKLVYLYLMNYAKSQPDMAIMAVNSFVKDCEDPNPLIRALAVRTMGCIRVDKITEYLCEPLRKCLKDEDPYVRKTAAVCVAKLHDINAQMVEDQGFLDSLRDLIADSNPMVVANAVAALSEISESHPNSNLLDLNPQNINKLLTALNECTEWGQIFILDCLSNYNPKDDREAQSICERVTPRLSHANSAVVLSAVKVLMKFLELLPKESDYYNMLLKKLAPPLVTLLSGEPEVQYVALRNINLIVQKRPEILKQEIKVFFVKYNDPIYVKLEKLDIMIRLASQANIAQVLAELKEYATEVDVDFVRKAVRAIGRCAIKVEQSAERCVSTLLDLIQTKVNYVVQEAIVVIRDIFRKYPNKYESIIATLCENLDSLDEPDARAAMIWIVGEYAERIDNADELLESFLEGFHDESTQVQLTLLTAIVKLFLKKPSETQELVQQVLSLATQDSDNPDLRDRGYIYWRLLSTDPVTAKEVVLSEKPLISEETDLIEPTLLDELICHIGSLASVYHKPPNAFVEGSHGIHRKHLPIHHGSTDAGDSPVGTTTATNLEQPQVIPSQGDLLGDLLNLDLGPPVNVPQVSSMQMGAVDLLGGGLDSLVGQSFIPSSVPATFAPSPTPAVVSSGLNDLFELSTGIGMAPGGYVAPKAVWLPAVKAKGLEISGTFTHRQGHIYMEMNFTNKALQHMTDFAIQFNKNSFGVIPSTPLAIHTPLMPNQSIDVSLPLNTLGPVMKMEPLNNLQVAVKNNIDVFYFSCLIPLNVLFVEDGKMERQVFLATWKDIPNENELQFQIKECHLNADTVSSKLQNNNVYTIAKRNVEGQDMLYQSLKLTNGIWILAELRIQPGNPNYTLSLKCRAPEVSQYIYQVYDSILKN

Row | Variant | effect of a mutation on the interaction
5 | Y561A | disrupting interaction

Variants of: B2
Conditions: with ap2m1_rat Ap2m1, P84092

Row | Variant | effect of a mutation on the interaction
6 | Y561A | disrupting interaction
7 | D441K | decreasing interaction
8 | D441K;N451A | decreasing interaction
9 | D441K;N451A;R489A | decreasing interaction
10 | D441K;R489A | decreasing interaction
11 | K446A | decreasing interaction strength
12 | K446M | decreasing interaction strength
13 | N451A | decreasing interaction
14 | R489A | decreasing interaction
